Here are results for 2 molecules from doi:10.1101/2020.10.05.327064 (bioRxiv, 2020).

Data set [1] concerns the target T1, Human Hsf1 wild type (human), Q00613.
T1 chain: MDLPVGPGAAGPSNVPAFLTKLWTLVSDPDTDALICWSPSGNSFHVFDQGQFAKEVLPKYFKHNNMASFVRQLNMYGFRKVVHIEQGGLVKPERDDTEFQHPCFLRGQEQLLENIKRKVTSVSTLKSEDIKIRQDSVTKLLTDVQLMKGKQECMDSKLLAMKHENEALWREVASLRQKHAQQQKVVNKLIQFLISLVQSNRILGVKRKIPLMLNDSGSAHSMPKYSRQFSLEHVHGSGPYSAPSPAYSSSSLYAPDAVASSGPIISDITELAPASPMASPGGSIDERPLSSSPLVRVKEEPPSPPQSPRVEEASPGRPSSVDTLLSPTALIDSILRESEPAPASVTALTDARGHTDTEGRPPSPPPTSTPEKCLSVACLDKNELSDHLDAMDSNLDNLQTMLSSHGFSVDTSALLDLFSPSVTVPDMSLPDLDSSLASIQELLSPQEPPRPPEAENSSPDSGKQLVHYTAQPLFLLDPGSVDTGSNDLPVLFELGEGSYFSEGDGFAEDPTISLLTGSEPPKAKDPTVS
In words: SEC. The conditions noted are these: remark: other sources report otherwise.

Data set [2] concerns the molecule itself. In words: SEC. For orientation: SEC sorts molecules by how far they enter the pores of the column.

Substitutions are numbered along the chain they refer to. Names and notes keep the numbering of the source.

By stoichiometry N is commonly meant a count of units in the complex or per binding partner.

B1: Human Hsf1 wild type, Q00613 1-529 (natural protein)
chain: T1 chain
In data set [1], B1 showed a stoichiometry N of 3.

B2: Hsf1-S303E,S307E (natural protein)
chain: T1 chain with S303E, S307E
With B2, the “stoichiometry N” value in data set [2] came to 3.
